Results published in US20040002582A1 (University of Texas, published 2004).
No end group written: not given here.

Tests used:
POW-E-D3 = target: T1, POW-E-D3 (Powassan virus, UniProt Q04538 579-674)
T1 sequence: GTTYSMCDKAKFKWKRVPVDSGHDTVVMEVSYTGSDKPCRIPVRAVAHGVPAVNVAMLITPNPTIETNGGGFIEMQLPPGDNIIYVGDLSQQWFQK

LGT virus = target: T2, LGT virus (Langat virus, UniProt P29837 281-776); test: cell-based or functional assay
T2 sequence: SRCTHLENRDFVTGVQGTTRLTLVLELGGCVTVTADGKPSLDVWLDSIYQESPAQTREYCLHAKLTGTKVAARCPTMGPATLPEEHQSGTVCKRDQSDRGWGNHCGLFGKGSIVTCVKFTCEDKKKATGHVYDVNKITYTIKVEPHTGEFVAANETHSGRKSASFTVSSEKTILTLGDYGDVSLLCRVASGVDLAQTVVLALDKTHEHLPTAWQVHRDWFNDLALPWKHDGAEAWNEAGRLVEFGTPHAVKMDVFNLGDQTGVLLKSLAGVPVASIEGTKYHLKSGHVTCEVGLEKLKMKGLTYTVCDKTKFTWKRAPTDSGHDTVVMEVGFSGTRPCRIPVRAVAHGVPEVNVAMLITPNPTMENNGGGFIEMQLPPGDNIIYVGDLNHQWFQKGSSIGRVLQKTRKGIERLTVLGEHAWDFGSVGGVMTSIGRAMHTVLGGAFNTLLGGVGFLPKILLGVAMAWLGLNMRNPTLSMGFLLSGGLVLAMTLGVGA

B1: MP-100 (designed binder)
peptide: RCCHPQCKEGKKCR
modifications: not fully specified; cysteine pairing not given here
POW-E-D3
  level of enrichment (ratio of enriched signal/library signal): > 1.5 ratio of enriched signal/library signal
LGT virus
  reduction of viral titer in Vero cells at 24 hpi: ~300 fold
  reduction of viral titer in Vero cells at 36 hpi: ~100 fold
